In patent publication US20160168266A1 (SBI BIOTECH, published 2016):
Positions count from the first letter of the chain named.

T1: human phospholipase D4 (PLD4) protein (human, UniProt Q96BZ4 1-506)
T1 sequence: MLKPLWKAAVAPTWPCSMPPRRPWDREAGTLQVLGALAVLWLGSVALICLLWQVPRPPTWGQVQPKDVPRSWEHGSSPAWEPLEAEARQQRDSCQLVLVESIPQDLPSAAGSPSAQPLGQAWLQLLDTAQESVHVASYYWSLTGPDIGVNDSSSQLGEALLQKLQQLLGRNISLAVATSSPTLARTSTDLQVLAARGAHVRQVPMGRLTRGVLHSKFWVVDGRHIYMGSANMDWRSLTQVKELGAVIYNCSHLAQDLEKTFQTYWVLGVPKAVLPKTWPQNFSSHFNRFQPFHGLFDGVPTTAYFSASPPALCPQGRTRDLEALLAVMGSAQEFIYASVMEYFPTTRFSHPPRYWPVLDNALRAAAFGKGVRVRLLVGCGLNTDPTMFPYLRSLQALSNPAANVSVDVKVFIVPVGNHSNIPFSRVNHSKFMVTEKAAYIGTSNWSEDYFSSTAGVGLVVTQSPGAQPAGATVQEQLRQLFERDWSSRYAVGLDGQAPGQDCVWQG

B1: chimeric 13D4 antibody (antibody, V domains shown)
VH: DVQLQESGPGLVKPSQSLSLTCSVTGYSITSHYYWTWIRQFPGNKLEWMGYISYDGSNNYNPSLKNRISITRDTSKNQFFLKLNSVTTEDTATYNCAREGPLYYGNPYWYFDVWGAGTTVTVSS
VL: DIQMTQTTSSLSASLGDRVTISCRASQDIDNYLNWYQQKPDGTVKLLIYYTSRLHSGVPSRFSGSGSGTDYSLTISNLEQEDVATYFCQQFNTLPRTFGGGTKLEIKR
B2: chimeric 13H11 antibody (antibody, V domains shown)
VH: B1 VH with T30S, T36S, K45R
VL: B1 VL with D17G, R18S, V83I
B3: anti-PLD4 chimeric 11G9.6 antibody (antibody, human IgG1, kappa, V domains shown)
VH: QVQLQQPGAELVKPGTSVKMSCKASGYTFTSYWMHWVKQRPGQGLEWIGDIYPGSDSTNYNEKFKSKATLTVDTSSSTAYMQLSSLTSEDSAVYYCARGGWLDAMDYWGQGTSVTVSS
VL: B1 VL with D30S, V83I, F91G, R96W
B4: anti-PLD4 mouse 8C11 antibody (antibody, mouse IgG2b, V domains shown)
VH: QVQLQQSGAELVKPGASVKLSCKASGYTFTSYYLYWVRQRPGQGLEWIGLINPTNSDTIFNEKFKSKATLTVDKSSSTAYMQLSSLTSEDSAVYYCTREGGYGYGPFAYWGQGTLVTVSA
VL: DVVMTQTPLSLPVSLGDQASISCTSSQTLVHSNGNTYLHWYLQKPGQSPKLLIYKVSNRFSGVPDRFSGSGSGTDFTLKISRVEAEDLGVYFCSHSTHVPFTFGSGTKLEIKR
notes: Mouse IgG2b, kappa monoclonal antibody
B5: chimeric 3B4 antibody (antibody, V domains shown)
VH: EVQLQQSGTVLSRPGASVTMSCKASGDSFTTYWMHWVKQRPGQGLEWIGAIYPGNSETSYNQKFKGKAKLTAVTSASTAYMEFTSLTNEDSAVYYCTGGYSDFDYWGQGTTLTVSS
VL: DILMTQSPSSMSVSLGDTVSITCHASQGIRSNIGWLQQKPGKSFKGLIFHGTNLEDGVPSRFSGRGSGADYSLTINSLESEDFADYYCVQYVQFPPTFGSGTKLEIRR
B6: chimeric 5B7 antibody (antibody, V domains shown)
VH: EVQLQQSGPELVKPGASVKISCKASGYTFTDYNLHWVKQSHGKSLEWIGYIYPYNGNTGYNQKFKRKATLTVDNSSGTVYMELRSLTSEDSAVYYCARGGIYDDYYDYAIDYWGQGTSVTVSS
VL: DIQMTQSPASLSVSVGETVAITCRASENIYSHIAWYQQKEGKSPQRLVYGATNLAHGVPSRFSGSGSGTQYSLKINSLQSEDFGSYYCQHFWGTPWTFGGGTKLEIKR
B7: anti-PLD4 mouse 10C3 antibody (antibody, mouse IgG2a, V domains shown)
VH: EVQLVESGGDLVRPGGSLKLSCAASGFSFSSYGMSWFRQTPDKRLEWVATISSGGSYIYYPESVKGRFTISRDNARNILYLQMSSLKSEDTAMYYCVRLYGGRRGYGLDYWGQGTSVTVSS
VL: EIVMTQAAFSNPVTLGTSASISCRSSKSLLHSDGITYLYWYLQKPGQSPQLLIYQMSNLASGVPDRFSSSGSGTDFTLRISRVEAEDVGVYYCAQNLELYTFGGGTKLEIKR
notes: Mouse IgG2a, kappa monoclonal antibody
B8: anti-PLD4 mouse 11D10 antibody (antibody, mouse IgG2b, V domains shown)
VH: B7 VH
VL: B7 VL
notes: Mouse IgG2b, kappa monoclonal antibody with the same CDRs as 10C3

How the values were obtained:
[1] = biological target: T1, human phospholipase D4 (PLD4) protein; assay: cell-based or functional assay
[2] = biological target: T1, human phospholipase D4 (PLD4) protein; assay: FACS screening of hybridoma culture supernatant (CAL-1 cells)

Row | Binder | PLD4+ activated B cells after culture of PBMC with CpG2006 and the chimeric antibody, with control Ig treatment taken as 100% [1] [%] | binding result [2]
1 | B1 | 56 | 
2 | B2 | 55.3 | 
3 | B3 | 66.4 | 
4 | B4 |  | binds
5 | B5 | 70.2 | 
6 | B6 | 25.8 | 
7 | B7 |  | binds
8 | B8 |  | binds
